Laboratory results published in patent US20070054259, “Modulation of hnRNP H and treatment of DM1” (City of Hope, published 2007).
Substitutions are numbered along the chain they refer to.

Assays:
Conditions in all cases: tags: bacterially expressed, purified as Markovtsov et al. 2000
hnRNP H (recombinant) [1] = molecular target: T1, hnRNP H (recombinant) (UniProt P31943 P31943:1-449); test: EMSA; native gel, lane 3
T1 sequence: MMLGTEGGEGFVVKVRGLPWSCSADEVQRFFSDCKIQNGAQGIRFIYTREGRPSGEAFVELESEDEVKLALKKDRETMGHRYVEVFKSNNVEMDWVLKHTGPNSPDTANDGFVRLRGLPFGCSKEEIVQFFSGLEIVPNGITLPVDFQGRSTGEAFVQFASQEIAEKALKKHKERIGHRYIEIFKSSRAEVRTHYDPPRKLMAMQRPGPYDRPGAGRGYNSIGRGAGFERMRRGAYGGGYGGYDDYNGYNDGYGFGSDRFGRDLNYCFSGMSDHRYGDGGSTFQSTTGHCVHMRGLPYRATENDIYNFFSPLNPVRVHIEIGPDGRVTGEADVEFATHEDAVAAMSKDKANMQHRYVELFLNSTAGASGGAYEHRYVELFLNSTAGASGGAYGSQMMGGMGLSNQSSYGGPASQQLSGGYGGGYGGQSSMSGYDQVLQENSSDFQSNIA
Text: (§1) Based on previous data FIGS. 1B, 1C, 2A and 2B) we speculated that the binding of hnRNP H to CUG repeats is proportional to the length of the repeats. The recombinant form of hnRNP H was indubated with different length CUG repeats and complexes resolved in a native gel (FIG. 4A). No binding to the CUG 5 RNA was observed (Lanes 1 and 3). When the CUG 46 RNA was used in this assay, only a small fraction of the protein was gel shifted (marked as * in lane 6). In contrast, the CUG85 RNA was much more gel shifted (marked as * in lane 9). […] Combined all hnRNP H binds to CUG repeats in a proportional way depends on the length of the (CUG) repeats.

hnRNP H (recombinant) [2] = molecular target: T1, hnRNP H (recombinant); test: EMSA; much more shifted than CUG46; 50 kDa UV crosslink but no 100 kDa dimer without extract
Text: as §1

hnRNP H (recombinant) [3] = molecular target: T1, hnRNP H (recombinant); test: EMSA; 10 ng protein; binding abolished by branch site mutation
Text: as §1
The different RNAs used in these assays have CUG repeats as well as a splicing acceptor site derived from a downstream of the DMPK gene (Gourdon, 1997). To understand the role of this 3′ branch site in the binding reaction, a mutant CUG85 clone containing a mutant form of the branch site was created (marked as CUG85′, FIG. 1A).

CUGCUGCUGCUGCUGGGGGGAUCACAGACCA (ssRNA) [(CUG)5 DMPK RNA]: no binding (hnRNP H (recombinant) [1]).

B1: (CUG)85 DMPK RNA (ssRNA)
RNA: CUGCUGCUGCUGCUGCUGCUGCUGCUGCUGCUGCUGCUGCUGCUGCUGCUGCUGCUGCUGCUGCUGCUGCUGCUGCUGCUGCUGCUGCUGCUGCUGCUGCUGCUGCUGCUGCUGCUGCUGCUGCUGCUGCUGCUGCUGCUGCUGCUGCUGCUGCUGCUGCUGCUGCUGCUGCUGCUGCUGCUGCUGCUGCUGCUGCUGCUGCUGCUGCUGCUGCUGCUGCUGCUGCUGCUGCUGCUGCUGCUGCUGCUGCUGCUGGGGGGAUCACAGACCA
B1: binds (hnRNP H (recombinant) [2]).

B2: (CUG)85' DMPK RNA, mutated 3' branch site (ssRNA)
RNA: B1 RNA with C265G, A266U
B2: no binding (hnRNP H (recombinant) [3]).
